Molecular target: Protein G bound to porous resin beads (Pierce Biotechnology, Protein G UltraLink resin) (UniProt P19909)
Assay: 100 ug IgG mixed with 10 uL Protein G resin bead suspension; supernatant analysed by SDS-PAGE, band pixels

residual amount of antibody (unbound IgG remaining in the supernatant): 3%
Substance: human immunoglobulin G (IgG) (antibody)
